Measurements reported in patent US20100261660A1.

Target: hB7-1-FLAG (human) (UniProt P33681)
Assay: flow cytometry, seven transient transfections of 293 cells, mean±SEM; used by the filing as a measure of expression

Chain of hB7-1-FLAG (human) (P33681 other isoform, or with tags, fused parts or gaps): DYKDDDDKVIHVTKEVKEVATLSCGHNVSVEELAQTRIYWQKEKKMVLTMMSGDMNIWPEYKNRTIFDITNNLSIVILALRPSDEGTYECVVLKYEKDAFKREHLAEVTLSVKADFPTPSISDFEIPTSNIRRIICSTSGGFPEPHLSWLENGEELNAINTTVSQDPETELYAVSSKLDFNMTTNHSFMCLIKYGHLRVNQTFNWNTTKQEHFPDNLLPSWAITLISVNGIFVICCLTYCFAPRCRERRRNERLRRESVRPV

mean fluorescence intensity (MFI): 55
Substance: FLAG-specific mAb M2 (antibody)
